Assays:
[1] = target: FpvAI (ferripyoverdine transporter of P. aeruginosa PAO1), recombinant (P. aeruginosa PAO1)
[2] = target: FpvAI (ferripyoverdine transporter of P. aeruginosa PAO1), recombinant (P. aeruginosa PAO1); experiment: ITC
[3] = target: TonB1 periplasmic domain (residues 109–342) (P. aeruginosa); experiment: ITC

Substance	fold decrease of binding against pyoS2^NTD [1] [fold]	Kd [2] [nM]	dH [2] [kcal/mol]	stoichiometry N [2] [sites]	Kd [3] [nM]
Δ1–45 pyoS2^NTD (from UniProt Q06584 46-209) (domain or fragment)	1000	–	–	–	–
N-terminal domain of pyocin S2 (pyoS2^NTD), residues 1–209 (from UniProt Q06584 1-209) (domain or fragment)	–	0.24	-15.8	0.78	1000

— PMC5692591
